Measured values from article PMC3950343 (Genes & Development, 2014).

Biological target: the molecule itself
Test: SEC-MALS

B1: Rad50-HK^WT (mouse Rad50 hook domain fragment, amino acids 591-773) (domain or fragment, UniProt P70388 591-773, looked up)
chain: RDRLAKLNKELASAEQNKNHINNELKKKEEQLSSYEDKLFDVCGSQDLESDLGRLKEEIEKSSKQRAMLAGATAVYSQFITQLTDENQSCCPVCQRVFQTEAELQEVISDLQSKLRLAPDKLKSTESELKKKERRRDEMLGLVPVRQSIIDLKEKEIPELRNRLQSVNRDIQRLKNDIEEQET
stoichiometry N: 2
